The labels stand for the following.
B1: peptide HD2 (from tick evasin EVA4) / CCL17 (biotinylated, synthetic) (parent complex)
chain 1: EEDDYTAYAPLTCYFT
chain 2: ARGTNVGRECCLEYFKGAIPLRKLKTWYQTSEDCSRDAIVFVTVQGRAICSDPNNKRVKNAVKYLQSLERS

In this experiment the parent is B1.
On to chain 1 EEDDYTAYAPLTCYIT [chain 1 F15I], for which the enrichment is 0.435 log2 (difference from the parental peptide).

For the variant chain 1 EEDDYTAYAPLTCYDT [chain 1 F15D], the enrichment was -0.947 log2 (difference from the parental peptide).

As for chain 1 EEDDYTAYAPLTCYET [chain 1 F15E], the enrichment was -1.17 log2 (difference from the parental peptide).

For the variant chain 1 EEDDYTAYAPLTCYCT [chain 1 F15C], the enrichment was -5.94 log2 (difference from the parental peptide).

With chain 1 EEDDYTAYAPLTCYWT [chain 1 F15W], the enrichment was -1.65 log2 (difference from the parental peptide).

chain 1 EEDDYNAYAPLTCYFT [chain 1 T6N]: the enrichment is 0.737 log2 (difference from the parental peptide).

In the case of chain 1 EEDDYKAYAPLTCYFT [chain 1 T6K], the enrichment was 0.208 log2 (difference from the parental peptide).

Regarding chain 1 EEDDYFAYAPLTCYFT [chain 1 T6F], the enrichment was -2.91 log2 (difference from the parental peptide).

On to chain 1 EEDDYEAYAPLTCYFT [chain 1 T6E], for which the enrichment was 1.53 log2 (difference from the parental peptide).

Consider chain 1 EEDDYDAYAPLTCYFT [chain 1 T6D], for which the enrichment is 1.63 log2 (difference from the parental peptide).

As for chain 1 EEDDYSAYAPLTCYFT [chain 1 T6S], the enrichment was 2.6 log2 (difference from the parental peptide).

Consider chain 1 EEDDYGAYAPLTCYFT [chain 1 T6G], for which the enrichment was 2.24 log2 (difference from the parental peptide).

On to chain 1 EEDDYMAYAPLTCYFT [chain 1 T6M], for which the enrichment is -0.648 log2 (difference from the parental peptide).

As to chain 1 EEDDYWAYAPLTCYFT [chain 1 T6W], the enrichment is 0.392 log2 (difference from the parental peptide).

For the variant chain 1 EEDDYQAYAPLTCYFT [chain 1 T6Q], the enrichment is 0.398 log2 (difference from the parental peptide).

In the case of chain 1 EEDWYTAYAPLTCYFT [chain 1 D4W], the enrichment is -7.69 log2 (difference from the parental peptide).

For chain 1 EEDEYTAYAPLTCYFT [chain 1 D4E], the enrichment was -0.373 log2 (difference from the parental peptide).

For chain 1 EEDQYTAYAPLTCYFT [chain 1 D4Q], the enrichment is -3.42 log2 (difference from the parental peptide).

Regarding chain 1 EEDGYTAYAPLTCYFT [chain 1 D4G], the enrichment was -4.74 log2 (difference from the parental peptide).

As for chain 1 EEDAYTAYAPLTCYFT [chain 1 D4A], the enrichment is -3.66 log2 (difference from the parental peptide).

On to chain 1 EEDYYTAYAPLTCYFT [chain 1 D4Y], for which the enrichment is -5.69 log2 (difference from the parental peptide).

With chain 1 EEDHYTAYAPLTCYFT [chain 1 D4H], the enrichment was -6.29 log2 (difference from the parental peptide).

For chain 1 EEDTYTAYAPLTCYFT [chain 1 D4T], the enrichment was -5.39 log2 (difference from the parental peptide).

For chain 1 EEDDYTAYAFLTCYFT [chain 1 P10F], the enrichment is -7.51 log2 (difference from the parental peptide).

Take chain 1 EEDDYTAYALLTCYFT [chain 1 P10L]: the enrichment was -8.28 log2 (difference from the parental peptide).

With chain 1 EEDDYTAYATLTCYFT [chain 1 P10T], the enrichment was -7.97 log2 (difference from the parental peptide).

Take chain 1 EEDDYTAYAQLTCYFT [chain 1 P10Q]: the enrichment was -4.91 log2 (difference from the parental peptide).

Consider chain 1 EEDDYTAYAYLTCYFT [chain 1 P10Y], for which the enrichment is -6.08 log2 (difference from the parental peptide).

With chain 1 EEDDYTAYSPLTCYFT [chain 1 A9S], the enrichment was -0.697 log2 (difference from the parental peptide).

For the variant chain 1 EEDDYTAYQPLTCYFT [chain 1 A9Q], the enrichment is -1.77 log2 (difference from the parental peptide).

chain 1 EEDDYTAYRPLTCYFT [chain 1 A9R]: the enrichment is -4.45 log2 (difference from the parental peptide).

With chain 1 EEDDYTAYFPLTCYFT [chain 1 A9F], the enrichment is -8.26 log2 (difference from the parental peptide).

Take chain 1 EEDDYTAYLPLTCYFT [chain 1 A9L]: the enrichment was -7.01 log2 (difference from the parental peptide).

As to chain 1 EEDDYTAYNPLTCYFT [chain 1 A9N], the enrichment is -4.52 log2 (difference from the parental peptide).

As for chain 1 EEDDYTAYTPLTCYFT [chain 1 A9T], the enrichment is -4.51 log2 (difference from the parental peptide).

As for chain 1 REDDYTAYAPLTCYFT [chain 1 E1R], the enrichment is -1.72 log2 (difference from the parental peptide).

On to chain 1 WEDDYTAYAPLTCYFT [chain 1 E1W], for which the enrichment was -2.36 log2 (difference from the parental peptide).

Take chain 1 YEDDYTAYAPLTCYFT [chain 1 E1Y]: the enrichment was -0.248 log2 (difference from the parental peptide).

As for chain 1 QEDDYTAYAPLTCYFT [chain 1 E1Q], the enrichment is 0.156 log2 (difference from the parental peptide).

chain 1 HEDDYTAYAPLTCYFT [chain 1 E1H]: the enrichment was -0.323 log2 (difference from the parental peptide).

As for chain 1 SEDDYTAYAPLTCYFT [chain 1 E1S], the enrichment is 0.17 log2 (difference from the parental peptide).

Take chain 1 PEDDYTAYAPLTCYFT [chain 1 E1P]: the enrichment is -1.24 log2 (difference from the parental peptide).

As to chain 1 TEDDYTAYAPLTCYFT [chain 1 E1T], the enrichment was -0.325 log2 (difference from the parental peptide).

Consider chain 1 FEDDYTAYAPLTCYFT [chain 1 E1F], for which the enrichment is -1.75 log2 (difference from the parental peptide).

In the case of chain 1 GEDDYTAYAPLTCYFT [chain 1 E1G], the enrichment is 0.607 log2 (difference from the parental peptide).

With chain 1 KEDDYTAYAPLTCYFT [chain 1 E1K], the enrichment was -0.679 log2 (difference from the parental peptide).

In the case of chain 1 EEDDYTRYAPLTCYFT [chain 1 A7R], the enrichment is 3.96 log2 (difference from the parental peptide).

Take chain 1 EEDDYTPYAPLTCYFT [chain 1 A7P]: the enrichment is 1.3 log2 (difference from the parental peptide).

For the variant chain 1 EEDDYTTYAPLTCYFT [chain 1 A7T], the enrichment is -1.52 log2 (difference from the parental peptide).

For chain 1 EEDDYTHYAPLTCYFT [chain 1 A7H], the enrichment is 1.03 log2 (difference from the parental peptide).

Regarding chain 1 EEDDYTKYAPLTCYFT [chain 1 A7K], the enrichment was 3.56 log2 (difference from the parental peptide).

Regarding chain 1 EEDDYTIYAPLTCYFT [chain 1 A7I], the enrichment is -4.17 log2 (difference from the parental peptide).

Regarding chain 1 EEDDYTYYAPLTCYFT [chain 1 A7Y], the enrichment was -1.58 log2 (difference from the parental peptide).

For chain 1 EEDDYTLYAPLTCYFT [chain 1 A7L], the enrichment was -0.26 log2 (difference from the parental peptide).

In the case of chain 1 EEDDYTQYAPLTCYFT [chain 1 A7Q], the enrichment is 1.91 log2 (difference from the parental peptide).

Consider chain 1 EEDDYTVYAPLTCYFT [chain 1 A7V], for which the enrichment is -4.48 log2 (difference from the parental peptide).

On to chain 1 EEDDYTAYAPLTEYFT [chain 1 C13E], for which the enrichment was -7.45 log2 (difference from the parental peptide).

In the case of chain 1 EEDDYTAYAPLTIYFT [chain 1 C13I], the enrichment was -2.82 log2 (difference from the parental peptide).

With chain 1 EEDDYTAYAPLTYYFT [chain 1 C13Y], the enrichment was -5.68 log2 (difference from the parental peptide).

chain 1 EEDDYTAYAPLTPYFT [chain 1 C13P]: the enrichment was -6.7 log2 (difference from the parental peptide).

chain 1 EEDDYTAYAPLTRYFT [chain 1 C13R]: the enrichment is -10.7 log2 (difference from the parental peptide).

Take chain 1 EEDDYTAYAPLLCYFT [chain 1 T12L]: the enrichment was 0.297 log2 (difference from the parental peptide).

In the case of chain 1 EEDDYTAYAPLECYFT [chain 1 T12E], the enrichment was -5.73 log2 (difference from the parental peptide).

With chain 1 EEDDYTAYAPLVCYFT [chain 1 T12V], the enrichment was -0.896 log2 (difference from the parental peptide).

Consider chain 1 EEDDYTAYAPLCCYFT [chain 1 T12C], for which the enrichment is -3.34 log2 (difference from the parental peptide).

With chain 1 EEDDYTAYAPLFCYFT [chain 1 T12F], the enrichment was 0.112 log2 (difference from the parental peptide).

Turning to chain 1 EEDDDTAYAPLTCYFT [chain 1 Y5D], the enrichment is -5.57 log2 (difference from the parental peptide).

For chain 1 EEDDLTAYAPLTCYFT [chain 1 Y5L], the enrichment is -3.76 log2 (difference from the parental peptide).

On to chain 1 EEDDHTAYAPLTCYFT [chain 1 Y5H], for which the enrichment was -5.84 log2 (difference from the parental peptide).

With chain 1 EEDDATAYAPLTCYFT [chain 1 Y5A], the enrichment is -5.17 log2 (difference from the parental peptide).

For the variant chain 1 EEDDVTAYAPLTCYFT [chain 1 Y5V], the enrichment is -6.56 log2 (difference from the parental peptide).

chain 1 EEDDCTAYAPLTCYFT [chain 1 Y5C]: the enrichment is -5.02 log2 (difference from the parental peptide).

Turning to chain 1 EEDDYTAYAPRTCYFT [chain 1 L11R], the enrichment is 3.2 log2 (difference from the parental peptide).

For chain 1 EEDDYTAYAPFTCYFT [chain 1 L11F], the enrichment is -0.993 log2 (difference from the parental peptide).

Regarding chain 1 EEDDYTAYAPCTCYFT [chain 1 L11C], the enrichment was 0.521 log2 (difference from the parental peptide).

chain 1 EEDDYTAYAPHTCYFT [chain 1 L11H]: the enrichment is 2.36 log2 (difference from the parental peptide).

As for chain 1 EEDDYTAYAPPTCYFT [chain 1 L11P], the enrichment was -5.62 log2 (difference from the parental peptide).

In the case of chain 1 EEDDYTAYAPSTCYFT [chain 1 L11S], the enrichment was -0.205 log2 (difference from the parental peptide).

As to chain 1 EEDDYTAYAPMTCYFT [chain 1 L11M], the enrichment is 3.11 log2 (difference from the parental peptide).

chain 1 ELDDYTAYAPLTCYFT [chain 1 E2L]: the enrichment was -1.6 log2 (difference from the parental peptide).

For chain 1 ERDDYTAYAPLTCYFT [chain 1 E2R], the enrichment is -1.35 log2 (difference from the parental peptide).

For the variant chain 1 EPDDYTAYAPLTCYFT [chain 1 E2P], the enrichment is -2.4 log2 (difference from the parental peptide).

chain 1 ECDDYTAYAPLTCYFT [chain 1 E2C]: the enrichment was -10.1 log2 (difference from the parental peptide).

On to chain 1 EADDYTAYAPLTCYFT [chain 1 E2A], for which the enrichment is -0.532 log2 (difference from the parental peptide).

Turning to chain 1 EVDDYTAYAPLTCYFT [chain 1 E2V], the enrichment is -1.03 log2 (difference from the parental peptide).

Regarding chain 1 EERDYTAYAPLTCYFT [chain 1 D3R], the enrichment is -5.97 log2 (difference from the parental peptide).

Turning to chain 1 EEWDYTAYAPLTCYFT [chain 1 D3W], the enrichment was -4.02 log2 (difference from the parental peptide).

In the case of chain 1 EEGDYTAYAPLTCYFT [chain 1 D3G], the enrichment is -4.23 log2 (difference from the parental peptide).

In the case of chain 1 EENDYTAYAPLTCYFT [chain 1 D3N], the enrichment was -1.74 log2 (difference from the parental peptide).

With chain 1 EEKDYTAYAPLTCYFT [chain 1 D3K], the enrichment was -3.46 log2 (difference from the parental peptide).

Regarding chain 1 EESDYTAYAPLTCYFT [chain 1 D3S], the enrichment is -2.79 log2 (difference from the parental peptide).

As for chain 1 EEPDYTAYAPLTCYFT [chain 1 D3P], the enrichment was -2.92 log2 (difference from the parental peptide).

Take chain 1 EEQDYTAYAPLTCYFT [chain 1 D3Q]: the enrichment was -1.63 log2 (difference from the parental peptide).

Consider chain 1 EEMDYTAYAPLTCYFT [chain 1 D3M], for which the enrichment is -4.48 log2 (difference from the parental peptide).

Consider chain 1 EEDDYTAYAPLTCYFK [chain 1 T16K], for which the enrichment is 0.193 log2 (difference from the parental peptide).

As for chain 1 EEDDYTAYAPLTCYFL [chain 1 T16L], the enrichment was 0.451 log2 (difference from the parental peptide).

In the case of chain 1 EEDDYTAYAPLTCYFQ [chain 1 T16Q], the enrichment was 1.17 log2 (difference from the parental peptide).

Regarding chain 1 EEDDYTAYAPLTCYFW [chain 1 T16W], the enrichment was -1.23 log2 (difference from the parental peptide).

For chain 1 EEDDYTAYAPLTCYFH [chain 1 T16H], the enrichment was 0.123 log2 (difference from the parental peptide).

chain 1 EEDDYTAYAPLTCYFE [chain 1 T16E]: the enrichment was 1.12 log2 (difference from the parental peptide).

As to chain 1 EEDDYTAYAPLTCYFI [chain 1 T16I], the enrichment was -0.321 log2 (difference from the parental peptide).

Consider chain 1 EEDDYTAYAPLTCYFF [chain 1 T16F], for which the enrichment was -0.625 log2 (difference from the parental peptide).

In the case of chain 1 EEDDYTAYAPLTCYFN [chain 1 T16N], the enrichment is 0.157 log2 (difference from the parental peptide).

Consider chain 1 EEDDYTAYAPLTCYFY [chain 1 T16Y], for which the enrichment is -0.84 log2 (difference from the parental peptide).

Turning to chain 1 EEDDYTAYAPLTCFFT [chain 1 Y14F], the enrichment is -0.272 log2 (difference from the parental peptide).

As for chain 1 EEDDYTAYAPLTCQFT [chain 1 Y14Q], the enrichment is -4.69 log2 (difference from the parental peptide).

With chain 1 EEDDYTAYAPLTCAFT [chain 1 Y14A], the enrichment was -6.44 log2 (difference from the parental peptide).

Regarding chain 1 EEDDYTAYAPLTCWFT [chain 1 Y14W], the enrichment is -0.976 log2 (difference from the parental peptide).

Take chain 1 EEDDYTAYAPLTCMFT [chain 1 Y14M]: the enrichment is -4.32 log2 (difference from the parental peptide).

As for chain 1 EEDDYTAYAPLTCPFT [chain 1 Y14P], the enrichment is -7.37 log2 (difference from the parental peptide).

In the case of chain 1 EEDDYTAYAPLTCVFT [chain 1 Y14V], the enrichment was -3.57 log2 (difference from the parental peptide).

As to chain 1 EEDDYTASAPLTCYFT [chain 1 Y8S], the enrichment was -8.85 log2 (difference from the parental peptide).

(Values after article PMC11969024 (2025).)
